The assay addresses growth factor receptors. Kind of assay: cell-based or functional assay.

On to NDEGLESVPTEESAISMLYL [SEQ ID NO: 56], for which the p-Smad1/5/8 (%) (quantification of western blots of phospho-smad1/5/8) was 28%. In turn, SIPKASSTPTELSPINMLYF [SEQ ID NO: 54] yielded a p-Smad1/5/8 (%) (quantification of western blots of phospho-smad1/5/8) of 32%. As for VVPKPSSAPTQLEPISILYL [SEQ ID NO: 59], the figure is 29%; as for NDEGLESVPTEERSVKVAKV [SEQ ID NO: 63], 34%; as for SSVKSQPSRVHHSPISILFI [SEQ ID NO: 57], 41%.

For ASASPSSVSQDLSSLSILFF [SEQ ID NO: 58], the p-Smad1/5/8 (%) (quantification of western blots of phospho-smad1/5/8) amounted to 37%. SSVKSQPSRVHHKPLSMLYV [SEQ ID NO: 62] yielded a p-Smad1/5/8 (%) (quantification of western blots of phospho-smad1/5/8) of 31%.
